# Test results as given in PMC9411592 (2022).
# Read-outs that look alike come from different tables or passages of the source.
# B1: integrin αVβ8 headpiece (αV residues 1-594, β8 residues 1-456) (complex)
# chain 1: FNLDVDSPAEYSGPEGSYFGFAVDFFVPSASSRMFLLVGAPKANTTQPGIVEGGQVLKCDWSSTRRCQPIEFDATGNRDYAKDDPLEFKSHQWFGASVRSKQDKILACAPLYHWRTEMKQEREPVGTCFLQDGTKTVEYAPCRSQDIDADGQGFCQGGFSIDFTKADRVLLGGPGSFYWQGQLISDQVAEIVSKYDPNVYSIKYNNQLATRTAQAIFDDSYLGYSVAVGDFNGDGIDDFVSGVPRAARTLGMVYIYDGKNMSSLYNFTGEQMAAYFGFSVAATDINGDDYADVFIGAPLFMDRGSDGKLQEVGQVSVSLQRASGDFQTTKLNGFEVFARFGSAIAPLGDLDQDGFNDIAIAAPYGGEDKKGIVYIFNGRSTGLNAVPSQILEGQWAARSGCPPSFGYSMKGATDIDKNGYPDLIVGAFGVDRAILYRARPVITVNAGLEVYPSILNQDNKTCSLPGTALKVSCFNVRFCLKADGKGVLPRKLNFQVELLLDKLKQKGAIRRALFLYSRSPSHSKNMTISRGGLMQCEELIAYLRDESEFRDKLTPITIFMEYRLDYRTAADTTGLQPILNQFTPANISRQAHILLD
# chain 2: EDNRCASSNAASCARCLALGPECGWCVQEDFISGGSRSERCDIVSNLISKGCSVDSIEYPSVHVIIPTENEINTQVTPGEVSIQLRPGAEANFMLKVHPLKKYPVDLYYLVDVSASMHNNIEKLNSVGNDLSRKMAFFSRDFRLGFGSYVDKTVSPYISIHPERIHNQCSDYNLDCMPPHGYIHVLSLTENITEFEKAVHRQKISGNIDTPEGGFDAMLQAAVCESHIGWRKEAKRLLLVMTDQTSHLALDSKLAGIVCPNDGNCHLKNNVYVKSTTMEHPSLGQLSEKLIDNNINVIFAVQGKQFHWYKDLLPLLPGTIAGEIESKAANLNNLVVEAYQKLISEVKVQVENQVQGIYFNITAICPDGSRKPGMEGCRNVTSNDEVLFNVTVTMKKCDVTGGKNYAIIKPIGFNETAKIHIHRNCSCQCEDNRGPKGKCVDETFLDSKCFQCDENK
# B2: integrin αVβ6-8DLL headpiece (the disulfide-linked loop of β6 substituted by that of β8) (complex)
# chain 1: FNLDVDSPAEYSGPEGSYFGFAVDFFVPSASSRMFLLVGAPKANTTQPGIVEGGQVLKCDWSSTRRCQPIEFDATGNRDYAKDDPLEFKSHQWFGASVRSKQDKILACAPLYHWRTEMKQEREPVGTCFLQDGTKTVEYAPCRSQDIDADGQGFCQGGFSIDFTKADRVLLGGPGSFYWQGQLISDQVAEIVSKYDPNVYSIKYNNQLATRTAQAIFDDSYLGYSVAVGDFNGDGIDDFVSGVPRAARTLGMVYIYDGKNMSSLYNFTGEQMAAYFGFSVAATDINGDDYADVFIGAPLFMDRGSDGKLQEVGQVSVSLQRASGDFQTTKLNGFEVFARFGSAIAPLGDLDQDGFNDIAIAAPYGGEDKKGIVYIFNGRSTGLNAVPSQILEGQWAARSGCPPSFGYSMKGATDIDKNGYPDLIVGAFGVDRAILYRARPVITVNAGLEVYPSILNQDNKTCSLPGTALKVSCFNVRFCLKADGKGVLPRKLNFQVELLLDKLKQKGAIRRALFLYSRSPSHSKNMTISRGGLMQCEELIAYLRDESEFRDKLTPITIFMEYRLDYRTAADTTGLQPILNQFTPANISRQAHILLD
# chain 2: HVQGGCALGGAETCEDCLLIGPQCAWCAQENFTHPSGVGERCDTPANLLAKGCQLNFIENPVSQVEILKNKPLSVGRQKNSSDIVQIAPQSLILKLRPGGAQTLQVHVRQTEDYPVDLYYLMDLSASMDDDLNTIKELGSRLSKEMSKLTSNFRLGFGSFVEKPVSPFVKTTPEEIANPCSDYNLDCLPTFGFKHILPLTNDAERFNEIVKNQKISANIDTPEGGFDAIMQAAVCKEKIGWRNDSLHLLVFVSDADSHFGMDSKLAGIVCPNDGLCHLDSKNEYSMSTVLEYPTIGQLIDKLVQNNVLLIFAVTQEQVHLYENYAKLIPGATVGLLQKDSGNILQLIISAYEELRSEVELEVLGDTEGLNLSFTAICNNGTLFQHQKKCSHMKVGDTASFSVTVNIPHCERRSRHIIIKPVGLGDALELLVSPECNCDCQKEVEVNSSKCHHGNGSFQCGVCACHPGHMGPRCE
# B3: integrin αVβ6 headpiece (αV residues 1-594, β6 residues 1-474) (complex)
# chain 1: FNLDVDSPAEYSGPEGSYFGFAVDFFVPSASSRMFLLVGAPKANTTQPGIVEGGQVLKCDWSSTRRCQPIEFDATGNRDYAKDDPLEFKSHQWFGASVRSKQDKILACAPLYHWRTEMKQEREPVGTCFLQDGTKTVEYAPCRSQDIDADGQGFCQGGFSIDFTKADRVLLGGPGSFYWQGQLISDQVAEIVSKYDPNVYSIKYNNQLATRTAQAIFDDSYLGYSVAVGDFNGDGIDDFVSGVPRAARTLGMVYIYDGKNMSSLYNFTGEQMAAYFGFSVAATDINGDDYADVFIGAPLFMDRGSDGKLQEVGQVSVSLQRASGDFQTTKLNGFEVFARFGSAIAPLGDLDQDGFNDIAIAAPYGGEDKKGIVYIFNGRSTGLNAVPSQILEGQWAARSGCPPSFGYSMKGATDIDKNGYPDLIVGAFGVDRAILYRARPVITVNAGLEVYPSILNQDNKTCSLPGTALKVSCFNVRFCLKADGKGVLPRKLNFQVELLLDKLKQKGAIRRALFLYSRSPSHSKNMTISRGGLMQCEELIAYLRDESEFRDKLTPITIFMEYRLDYRTAADTTGLQPILNQFTPANISRQAHILLD
# chain 2: HVQGGCALGGAETCEDCLLIGPQCAWCAQENFTHPSGVGERCDTPANLLAKGCQLNFIENPVSQVEILKNKPLSVGRQKNSSDIVQIAPQSLILKLRPGGAQTLQVHVRQTEDYPVDLYYLMDLSASMDDDLNTIKELGSRLSKEMSKLTSNFRLGFGSFVEKPVSPFVKTTPEEIANPCSSIPYFCLPTFGFKHILPLTNDAERFNEIVKNQKISANIDTPEGGFDAIMQAAVCKEKIGWRNDSLHLLVFVSDADSHFGMDSKLAGIVCPNDGLCHLDSKNEYSMSTVLEYPTIGQLIDKLVQNNVLLIFAVTQEQVHLYENYAKLIPGATVGLLQKDSGNILQLIISAYEELRSEVELEVLGDTEGLNLSFTAICNNGTLFQHQKKCSHMKVGDTASFSVTVNIPHCERRSRHIIIKPVGLGDALELLVSPECNCDCQKEVEVNSSKCHHGNGSFQCGVCACHPGHMGPRCE
# B4: αVβ8-IgG1 Fc (heterotetramer of αVβ8 linked by the IgG1 Fc fragment on the C-terminus of β8) (Fc fusion)
# chain 1: FNLDVDSPAEYSGPEGSYFGFAVDFFVPSASSRMFLLVGAPKANTTQPGIVEGGQVLKCDWSSTRRCQPIEFDATGNRDYAKDDPLEFKSHQWFGASVRSKQDKILACAPLYHWRTEMKQEREPVGTCFLQDGTKTVEYAPCRSQDIDADGQGFCQGGFSIDFTKADRVLLGGPGSFYWQGQLISDQVAEIVSKYDPNVYSIKYNNQLATRTAQAIFDDSYLGYSVAVGDFNGDGIDDFVSGVPRAARTLGMVYIYDGKNMSSLYNFTGEQMAAYFGFSVAATDINGDDYADVFIGAPLFMDRGSDGKLQEVGQVSVSLQRASGDFQTTKLNGFEVFARFGSAIAPLGDLDQDGFNDIAIAAPYGGEDKKGIVYIFNGRSTGLNAVPSQILEGQWAARSGCPPSFGYSMKGATDIDKNGYPDLIVGAFGVDRAILYRARPVITVNAGLEVYPSILNQDNKTCSLPGTALKVSCFNVRFCLKADGKGVLPRKLNFQVELLLDKLKQKGAIRRALFLYSRSPSHSKNMTISRGGLMQCEELIAYLRDESEFRDKLTPITIFMEYRLDYRTAADTTGLQPILNQFTPANISRQAHILL
# chain 2: EDNRCASSNAASCARCLALGPECGWCVQEDFISGGSRSERCDIVSNLISKGCSVDSIEYPSVHVIIPTENEINTQVTPGEVSIQLRPGAEANFMLKVHPLKKYPVDLYYLVDVSASMHNNIEKLNSVGNDLSRKMAFFSRDFRLGFGSYVDKTVSPYISIHPERIHNQCSDYNLDCMPPHGYIHVLSLTENITEFEKAVHRQKISGNIDTPEGGFDAMLQAAVCESHIGWRKEAKRLLLVMTDQTSHLALDSKLAGIVCPNDGNCHLKNNVYVKSTTMEHPSLGQLSEKLIDNNINVIFAVQGKQFHWYKDLLPLLPGTIAGEIESKAANLNNLVVEAYQKLISEVKVQVENQVQGIYFNITAICPDGSRKPGMEGCRNVTSNDEVLFNVTVTMKKCDVTGGKNYAIIKPIGFNETAKIHIHRNCSCQCEDNRGPKGKCVDETFLDSKCFQCDENK
# B5: integrin αVβ8-6DLL headpiece (the disulfide-linked loop of β8 substituted by that of β6) (complex)
# chain 1: FNLDVDSPAEYSGPEGSYFGFAVDFFVPSASSRMFLLVGAPKANTTQPGIVEGGQVLKCDWSSTRRCQPIEFDATGNRDYAKDDPLEFKSHQWFGASVRSKQDKILACAPLYHWRTEMKQEREPVGTCFLQDGTKTVEYAPCRSQDIDADGQGFCQGGFSIDFTKADRVLLGGPGSFYWQGQLISDQVAEIVSKYDPNVYSIKYNNQLATRTAQAIFDDSYLGYSVAVGDFNGDGIDDFVSGVPRAARTLGMVYIYDGKNMSSLYNFTGEQMAAYFGFSVAATDINGDDYADVFIGAPLFMDRGSDGKLQEVGQVSVSLQRASGDFQTTKLNGFEVFARFGSAIAPLGDLDQDGFNDIAIAAPYGGEDKKGIVYIFNGRSTGLNAVPSQILEGQWAARSGCPPSFGYSMKGATDIDKNGYPDLIVGAFGVDRAILYRARPVITVNAGLEVYPSILNQDNKTCSLPGTALKVSCFNVRFCLKADGKGVLPRKLNFQVELLLDKLKQKGAIRRALFLYSRSPSHSKNMTISRGGLMQCEELIAYLRDESEFRDKLTPITIFMEYRLDYRTAADTTGLQPILNQFTPANISRQAHILL
# chain 2: EDNRCASSNAASCARCLALGPECGWCVQEDFISGGSRSERCDIVSNLISKGCSVDSIEYPSVHVIIPTENEINTQVTPGEVSIQLRPGAEANFMLKVHPLKKYPVDLYYLVDVSASMHNNIEKLNSVGNDLSRKMAFFSRDFRLGFGSYVDKTVSPYISIHPERIHNQCSSIPYFCMPPHGYIHVLSLTENITEFEKAVHRQKISGNIDTPEGGFDAMLQAAVCESHIGWRKEAKRLLLVMTDQTSHLALDSKLAGIVCPNDGNCHLKNNVYVKSTTMEHPSLGQLSEKLIDNNINVIFAVQGKQFHWYKDLLPLLPGTIAGEIESKAANLNNLVVEAYQKLISEVKVQVENQVQGIYFNITAICPDGSRKPGMEGCRNVTSNDEVLFNVTVTMKKCDVTGGKNYAIIKPIGFNETAKIHIHRNCSCQCEDNRGPKGKCVDETFLDSKCFQCDENK
# How the values were obtained:
# [1] = target: L-TGF-β1 C4S/R249A (the 'WT' of the SPR assay) (human); experiment: SPR
# [2] = target: L-TGF-β1 C4S/R249A (the 'WT' of the SPR assay) (human); experiment: SPR; remark: listed apart in the source
# Chain of L-TGF-β1 C4S/R249A (the 'WT' of the SPR assay) (human) (chain, as listed by the source R249A): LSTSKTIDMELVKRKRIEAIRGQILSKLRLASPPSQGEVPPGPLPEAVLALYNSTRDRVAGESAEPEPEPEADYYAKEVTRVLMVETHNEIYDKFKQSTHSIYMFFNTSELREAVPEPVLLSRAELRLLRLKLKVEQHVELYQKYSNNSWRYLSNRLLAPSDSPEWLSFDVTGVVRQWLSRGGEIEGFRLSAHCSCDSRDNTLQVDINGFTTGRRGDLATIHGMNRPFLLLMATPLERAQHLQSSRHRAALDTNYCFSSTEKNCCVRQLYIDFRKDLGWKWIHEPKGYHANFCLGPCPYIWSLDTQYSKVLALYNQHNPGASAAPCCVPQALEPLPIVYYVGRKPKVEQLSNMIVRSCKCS
Binder,koff [1] [s⁻¹],koff [2] [s⁻¹]
B1,0.00109,–
B2,–,0.00121
B3,–,0.000107
B4,7.6e-05,–
B5,–,0.000142
